± gives the standard deviation of the averaged measurements.
Test system: ATP
Assay: switch fluorescence ratio, 500 uM ATP over buffer (Cy3 cluster intensity, sum of 5 cycles each) (fold (ratio)); higher = stronger signal-on switching upon ATP binding; sequences stand for … in TCGTCGGCAGCGTCAGATGTGTATAAGAGACAGTTTTTTTTTTTTTTTTTTTTTTTTT…TC
Details: aptamer strand: ATP DNA aptamer (quencher-CACCTGGGGGAGTATTGCGGAGGAAGG + anchor), 100 nM annealed; ATP concentration: 500 uM
Summary of the method: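 The quencher-labelled ATP aptamer, at 100 nM, was annealed to Cy3-labelled switching-strand clusters on a modified Illumina MiSeq flow-cell. The clusters were imaged in selection buffer, then after 15 min with 500 uM ATP at 22 °C, and this buffer/ATP cycle ran five times with NaOH stripping and re-annealing between runs. Per-cluster fluorescence ratios, summed target-cycle over summed buffer-cycle Cy3 intensity, were averaged per switch-domain sequence. Clusters outside 100-1000 RFU were excluded.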
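Further: ATP exposure 15 min at 22 °C before imaging.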

| Sequence | switch fluorescence ratio |
| --- | --- |
| GTGGTTAAAA | 0.998 ± 0.012 |
| TCTGTCCTTT | 0.9708 ± 0.0028 |
| GTAATAGGTT | 0.956 ± 0.057 |
| TTTTCCTTTC | 1.206 ± 0.011 |
| AGTGCCGGCA | 1.02 ± 0.051 |
| TTTTGATATT | 1.01 ± 0.035 |
| AGAATTTTTG | 0.963 ± 0.075 |
| AAGGGGAGGG | 1 ± 0.013 |
| TACAGGGCTC | 1.05 ± 0.024 |
| CACGGACTGC | 1.42 ± 0.07 |
| TCTGATGTGA | 1.08 ± 0.044 |
| CGAAAGCAGG | 1.1681 ± 0.00099 |
| AGCCAGGATG | 1.104 ± 0.0047 |
| TCGGGACGGG | 1.01 ± 0.013 |
| TGAGGGGAGT | 0.9908 ± 0.0067 |
| GCGGGTGAGG | 1.02 ± 0.026 |
| AAATTTTGAA | 0.977 ± 0.021 |
| GCTTCAGGG | 1 ± 0.019 |
| GGGATGAACG | 1.04 ± 0.021 |
| ATGATAAAAT | 1.11 ± 0.13 |
| GGGGGAGAGA | 1.03 ± 0.064 |
| CCATTGTGCA | 1.01 ± 0.013 |
| AAAACGGTTG | 1 ± 0.019 |
| TCAGGGACGG | 0.982 ± 0.025 |
| CCCATCCGGT | 1.12 ± 0.023 |

| Sequence | switch fluorescence ratio |
| --- | --- |
| CGTACGTTCT | 1.026 ± 0.0096 |
| TTTGTTGTCA | 0.974 ± 0.016 |
| GGTTTTGGCG | 1 ± 0.061 |
| TTTTTAACGA | 0.9688 ± 0.009 |
| GACGTAGGTC | 1 ± 0.029 |
| GCCATTTTGG | 0.993 ± 0.013 |
| CGGAAGAATT | 0.99422 ± 0.00026 |
| ACATCGGTTC | 1.02 ± 0.029 |
| CCGCTAAGGT | 1.39 ± 0.092 |
| GGATACTCGC | 1.126 ± 0.01 |
| TCGGGCAGGG | 1.003 ± 0.0044 |
| GCCAGTTTGT | 0.9807 ± 0.0052 |
| CGTGCTAGTA | 1.02 ± 0.058 |
| AGAAAAGGGC | 1.026 ± 0.0014 |
| GGTCGGGGAG | 0.9987 ± 0.0028 |
| ATTTGAGCTA | 1.04 ± 0.023 |
| TCTTAGCGCG | 1.07 ± 0.041 |
| GCACGCGAAG | 1.04 ± 0.024 |
| TAAGGCCGGG | 0.9809 ± 0.0045 |
| CTAAAGAGCA | 1.03 ± 0.073 |
| TTGGCTTAAA | 1.007 ± 0.0097 |
| TGAATTGGTG | 1.031 ± 0.0055 |
| GTAGGAGGGA | 1.05 ± 0.1 |
| GGTTACATTG | 0.993 ± 0.019 |
| TATGGAAAGG | 0.994 ± 0.016 |

| Sequence | switch fluorescence ratio |
| --- | --- |
| TGGCTGGTAA | 0.991 ± 0.021 |
| GGGGTTTGTA | 0.98 ± 0.027 |
| CGATTCAAGG | 1.03 ± 0.017 |
| TTTTTTGCAT | 1.07 ± 0.19 |
| TAAGGGATAG | 0.985 ± 0.043 |
| TGAGTACGTC | 1.06 ± 0.14 |
| TGAGAGAAGT | 0.968 ± 0.071 |
| CAGAACAGCT | 1.029 ± 0.0039 |
| AATTCAGCAT | 1.03 ± 0.036 |
| ATACATTTGG | 0.999 ± 0.014 |
| GAAGTTGGTG | 0.987 ± 0.026 |
| TGTTGGCGGG | 0.989 ± 0.015 |
| GGGTAGAGTG | 1.006 ± 0.0019 |
| CCATTGTGAC | 1.06 ± 0.018 |
| AAGGGTTTAC | 0.995 ± 0.035 |
| GGTTAAGGGA | 0.982 ± 0.024 |
| ACTTTGTACG | 1.06 ± 0.011 |
| TTTGGGTGGC | 1.03 ± 0.036 |
| CCTAGGGGTT | 1.09 ± 0.064 |
| AGGAGTAATT | 1.01 ± 0.024 |
| TACGCTTATA | 1.19 ± 0.042 |
| TTAAAGGGGC | 1.03 ± 0.06 |
| TGGGACGACG | 0.991 ± 0.022 |
| TGGGATTGCG | 1.04 ± 0.012 |
| ATGTTAATCT | 1.02 ± 0.035 |

| Sequence | switch fluorescence ratio |
| --- | --- |
| TCGGGGTGCA | 0.9732 ± 0.0086 |
| CTGACCGGAG | 1.24 ± 0.036 |
| CCGCCTTAAT | 2.21 ± 0.084 |
| ATGATTAAGG | 1.015 ± 0.0029 |
| TGAGGGGGTT | 0.997 ± 0.049 |
| TTTGGGGCCT | 1.06 ± 0.15 |
| CGTGAGTTTG | 0.9888 ± 0.0082 |
| AACAAAACAA | 1.04 ± 0.055 |
| CCATCGTATG | 0.971 ± 0.015 |
| CCATAGCTCA | 2.016 ± 0.016 |
| TAGGTGGGGT | 0.971 ± 0.016 |
| GTTTTTACGT | 1.12 ± 0.14 |
| AGAATAGGGT | 0.9901 ± 0.0072 |
| TAAGGAAGGG | 1.004 ± 0.0075 |
| TGTGTTGGTG | 1.02 ± 0.033 |
| TATTTCCACT | 1.023 ± 0.01 |
| GCGCTGGTTT | 0.99 ± 0.034 |
| CTGGTTGGAG | 0.995 ± 0.022 |
| TGATAGGGAG | 0.982 ± 0.019 |
| AATCTGAAGA | 0.9983 ± 0.0097 |
| TCGTAGTATT | 0.993 ± 0.021 |
| CAGCGGTAGG | 1.03 ± 0.016 |
| AAATCTTTCG | 1.05 ± 0.044 |
| ATGCATGCGT | 1 ± 0.048 |
| CAGCGGGGGC | 1.01 ± 0.016 |

— the supplement of paper PMC10126150
